Assay results as given in article PMC11324105.
pKd: −log10 of the molar value.

Target: Nb9-R59A (alpaca)
Assay: BLI

Nb9-R59A (alpaca), sequence (heavy, as listed by the source): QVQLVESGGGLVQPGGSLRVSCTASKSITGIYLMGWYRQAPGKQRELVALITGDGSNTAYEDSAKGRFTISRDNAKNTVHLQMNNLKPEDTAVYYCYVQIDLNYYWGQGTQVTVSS

MERS-CoV RBD (from UniProt K9N5Q8) (domain or fragment)
pKd: 5.34
koff: 0.0624 s⁻¹
kon: 13600 M⁻¹ s⁻¹
